The record followed here is patent US20130052176, “APTAMER FOR NGF AND USE THEREOF” (SHIONOGI & CO., LTD, published 2013).

As usually defined, the IC50 is the point on the concentration scale where inhibition reaches its midpoint. Low values mean higher potency, high ones lower potency.

In data set [1] the target is T1, NGF (nerve growth factor) (human, UniProt P01138 P01138:122-241). The data set can be described thus: cell_activity; neurite outgrowth, NGF 0.38 nM; TF-1 IC50 0.319 nM. The following applies: tags: human NGF; chain copies: 2. The protocol: (§1) The neurite outgrowth inhibitory activity of the aptamer obtained in Example 1 was evaluated by using Neuroscreen-1 cell, which is a subclone of PC-12 cells.
(§2) The cells (2500 cells per well) were cultured for one day in an RPMI-1640 medium containing 2.5% horse serum and 1.25% fetal bovine serum in a 96 well flat-bottom plate coated with collagen type IV. […] Two days later, the cytoplasm and nuclei were stained using Cellomics Neurite Outgrowth Kit (manufactured by Thermo Scientific), and neurite length per cell was measured by Cellomics ArrayScan VTI (manufactured by Thermo Scientific). With the neurite length per cell obtained by the addition of NGF alone as inhibitory activity 0%, and that of the cell obtained by NGF free culture for 2 days as inhibitory activity 100%, the inhibitory activity of the aptamer was calculated from the neurite length per cell obtained by culturing with the addition of NGF and the aptamer in mixture. When the inhibitory activity was 0% or below, ‘0%’ is indicated.

Data set [2] deals with T2, NT-4/5 (human, UniProt P34130 P34130:81-210).
T2 sequence: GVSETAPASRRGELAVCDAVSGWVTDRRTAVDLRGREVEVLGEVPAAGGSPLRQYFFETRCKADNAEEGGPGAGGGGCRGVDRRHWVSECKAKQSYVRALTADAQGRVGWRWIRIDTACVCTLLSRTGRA
The data set can be described thus: cell_activity; TF-1 TrkB proliferation; SPR showed very fast dissociation. Conditions: tags: R&D Systems; chain copies: 2. The protocol: (§3) The physiological inhibitory activity of the aptamers represented by aptamer IDs: 26(2), 52, 63-65 against BDNF, NT-3, NT-4/5 was evaluated by a growth inhibition assay using TF-1 cells.
(§4) Human receptor genes (TrkB, TrkC, p75) for respective neurotrophic factors were introduced into TF-1 cells (ATCC Number:CRL-2003), which is a human erythroleukemic cell line, by using a retrovirus vector to give cells that highly express these receptors stably. TF-1 cells introduced with TrkB and p75 were used for the evaluation of inhibitory activity against BDNF, TF-1 cells introduced with TrkC and p75 were used for the evaluation against NT-3, and TF-1 cells introduced with TrkB alone were used for the evaluation against NT-4/5. These cells were suspended in an RPMI-1640 medium containing 20% fetal bovine serum, and seeded in a white 96 well flat-bottom plate at 1000 cells (50 μL) per well. […] With the amount of luminescence per well obtained by the addition of BDNF or NT-3 or NT-4/5 alone and culture of the cells for 3 days as inhibitory activity 0%, and that of the cell obtained by culture for 3 days without addition of BDNF or NT3 or NT-4/5 as inhibitory activity 100%, the inhibitory activity of the aptamer was calculated from the amount of luminescence per well obtained by culturing with the addition of BDNF or NT3 or NT-4/5 and the aptamer in mixture. […]

The target in data set [3] is T3, BDNF (human, UniProt P23560 P23560:129-247).
T3 sequence: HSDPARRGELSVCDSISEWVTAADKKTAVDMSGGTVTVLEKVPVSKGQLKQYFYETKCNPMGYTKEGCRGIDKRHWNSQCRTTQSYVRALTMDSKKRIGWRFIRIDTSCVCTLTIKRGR
In words: cell_activity; TF-1 TrkB/p75 proliferation; SPR showed very fast dissociation. The following applies: tags: R&D Systems; chain copies: 2. The protocol:
as §3, §4

For data set [4], the target named is T1, NGF (nerve growth factor). The data set can be described thus: cell_activity; neurite outgrowth, NGF 0.38 nM; TF-1 IC50 0.203 nM. Conditions: tags: human NGF; chain copies: 2. How it is done: as §1, §2
Data set [5] has as its target T1, NGF (nerve growth factor). In words: cell_activity; neurite outgrowth, NGF 0.38 nM; TF-1 IC50 0.158 nM. Conditions: tags: human NGF; chain copies: 2. The protocol: as §1, §2
Data set [6] deals with T1, NGF (nerve growth factor). In words: cell_activity; neurite outgrowth, NGF 0.38 nM; TF-1 IC50 0.184 nM. The following applies: tags: human NGF; chain copies: 2. The protocol:
as §1, §2

Data set [7] addresses T1, NGF (nerve growth factor). In words: cell_activity; neurite outgrowth, NGF 0.38 nM; TF-1 IC50 0.131 nM. Conditions: tags: human NGF; chain copies: 2. How it is done:
as §1, §2

Data set [8] addresses T1, NGF (nerve growth factor). The data set can be described thus: cell_activity; neurite outgrowth, NGF 0.38 nM; TF-1 IC50 0.177 nM. The following applies: tags: human NGF; chain copies: 2. How it is done:
as §1, §2

For data set [9], the target named is T1, NGF (nerve growth factor). The data set can be described thus: cell_activity; neurite outgrowth, NGF 0.38 nM; TF-1 IC50 0.156 nM. The following applies: tags: human NGF; chain copies: 2. How it is done: as §1, §2
For data set [10], the target named is T1, NGF (nerve growth factor). In words: cell_activity; neurite outgrowth, NGF 1.1 nM; TF-1 IC50 1.2 nM. The following applies: tags: human NGF; chain copies: 2. The protocol:
as §1, §2

Data set [11] deals with T1, NGF (nerve growth factor). In words: cell_activity; neurite outgrowth, NGF 1.1 nM; TF-1 IC50 1.5 nM. Conditions: tags: human NGF; chain copies: 2. How it is done:
as §1, §2

The target in data set [12] is T1, NGF (nerve growth factor). In words: cell_activity; neurite outgrowth, NGF 1.1 nM; TF-1 IC50 1.7 nM. The following applies: tags: human NGF; chain copies: 2. How it is done:
as §1, §2

Data set [13] concerns the target T1, NGF (nerve growth factor). The data set can be described thus: cell_activity; neurite outgrowth, NGF 1.1 nM; TF-1 IC50 7.0 nM. The following applies: tags: human NGF; chain copies: 2. How it is done:
as §1, §2

Data set [14] deals with T1, NGF (nerve growth factor). The data set can be described thus: cell_activity; neurite outgrowth, NGF 1.1 nM; TF-1 IC50 4.2 nM. Conditions: tags: human NGF; chain copies: 2. The protocol: as §1, §2

T1 sequence (P01138 122-241, one chain of several): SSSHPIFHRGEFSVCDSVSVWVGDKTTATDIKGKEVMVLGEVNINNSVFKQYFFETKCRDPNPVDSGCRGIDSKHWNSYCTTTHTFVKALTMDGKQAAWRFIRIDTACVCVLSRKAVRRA

B1: aptamer ID 26(70) (ssRNA)
RNA: GGGAGACUCGCCAGAGUUGAAAGAAACCCAAAUAAGUGUGCGCAC
modifications: 5' PEG80TS4 via ssH linker; 3' idT; 2'-F all pyrimidines; 2'-OMe purines except ribo g3,g19,a20,a26
For the molecule B1, the IC50 in data set [1] worked out at 0.126 nM.

B2: aptamer ID 26(2) (ssRNA)
RNA: B1 RNA
modifications: 5' and 3' idT; 2'-F all pyrimidines; 2'-OMe purines except ribo g3,g5,g19,a20,a21,a22,a24,a26
As to B2, the IC50 in data set [2] was greater than 300 nM; in data set [3] it was greater than 1000 nM.

B3: aptamer ID 26(25) (mixed)
RNA: B1 RNA
modifications: as 26(19) (5' and 3' idT; 2'-F pyrimidines; 2'-OMe purines except ribo g3,g19,a20,a26) but c12 is dC
In the case of B3, the IC50 in data set [4] is 0.29 nM.

B4: aptamer ID 26(27) (mixed)
RNA: B1 RNA
modifications: as 26(19) (5' and 3' idT; 2'-F pyrimidines; 2'-OMe purines except ribo g3,g19,a20,a26) but c29 is dC
In turn, B4 came in with an IC50 in data set [5] of 0.15 nM.

B5: aptamer ID 26(28) (mixed)
RNA: B1 RNA
modifications: as 26(19) (5' and 3' idT; 2'-F pyrimidines; 2'-OMe purines except ribo g3,g19,a20,a26) but u33 is dT
For the molecule B5, the IC50 in data set [6] amounted to 0.2 nM.

B6: aptamer ID 26(29) (mixed)
RNA: B1 RNA
modifications: as 26(19) (5' and 3' idT; 2'-F pyrimidines; 2'-OMe purines except ribo g3,g19,a20,a26) but u37 is dT
On to B6, for which, in data set [7], half-maximal inhibition (IC50) required 0.138 nM.

B7: aptamer ID 26(26) (mixed)
RNA: B1 RNA
modifications: as 26(19) (5' and 3' idT; 2'-F pyrimidines; 2'-OMe purines except ribo g3,g19,a20,a26) but u17 is dT
Regarding B7, the IC50 in data set [8] amounted to 0.285 nM.

B8: aptamer ID 26(24) (mixed)
RNA: B1 RNA
modifications: as 26(19) (5' and 3' idT; 2'-F pyrimidines; 2'-OMe purines except ribo g3,g19,a20,a26) but c11 is dC
Take B8: inhibition in data set [9] was half-maximal at 0.226 nM (IC50).

B9: aptamer ID 57(1) (mixed)
mixed: GGGAUAAAAAUAGAGTUUGATAAACACCUGUAUUAAAACCC
modifications: as ID 57 (5' cholesterol; 3' idT; dT16,dT21; 2'-F other pyrimidines and a37,a38; 2'-OMe purines except ribo a4,a7,g30) plus PS between 15 and 16
B9: the IC50 in data set [10] was less than 3 nM.

B10: aptamer ID 57(3) (mixed)
mixed: B9 mixed
modifications: as ID 57 (5' cholesterol; 3' idT; dT16,dT21; 2'-F other pyrimidines and a37,a38; 2'-OMe purines except ribo a4,a7,g30) plus PS between 19 and 20
The molecule B10 returned an IC50 in data set [11] of less than 3 nM.

B11: aptamer ID 57(5) (mixed)
mixed: B9 mixed
modifications: as ID 57 (5' cholesterol; 3' idT; dT16,dT21; 2'-F other pyrimidines and a37,a38; 2'-OMe purines except ribo a4,a7,g30) plus PS between 21 and 22
Molecule B11 showed an IC50 in [12] of less than 3 nM.

B12: aptamer ID 57(9) (mixed)
mixed: B9 mixed
modifications: as ID 57 (5' cholesterol; 3' idT; dT16,dT21; 2'-F other pyrimidines and a37,a38; 2'-OMe purines except ribo a4,a7,g30) plus PS between 29 and 30
In [13], B12 displayed an IC50 of less than 3 nM.

B13: aptamer ID 57(4) (mixed)
mixed: B9 mixed
modifications: as ID 57 (5' cholesterol; 3' idT; dT16,dT21; 2'-F other pyrimidines and a37,a38; 2'-OMe purines except ribo a4,a7,g30) plus PS between 20 and 21
Regarding B13, in [14], the IC50 is less than 3 nM.
